Experimental data from the nanobody polyreactivity screen of Harvey et al. (2022).

Test: yeast display, Sf9 membrane polyspecificity reagent, FACS + sequencing; frameworks hold sequencing errors
How it was run: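 After 36–48 hours of galactose induction, yeast (Saccharomyces cerevisiae BJ5465) displaying a synthetic nanobody library were stained at 4 °C for 1 hour with 10% biotinylated, detergent-solubilized Sf9 membrane reagent. Streptavidin microbeads enriched the stained cells before FACS sorting into low and high (top ~1%) gates on anti-HA and streptavidin fluorescence. Each clone's polyreactivity label reflects its gate of origin.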

Sequence	polyreactivity (PSR sort gate)
QVQLVESGGGLVQAGGSLRLSCAASGLIFVHYAMGWYRQAPGKEREFVAAITWSGGSKYYADSVKGRFTISRDNAKNTVYLQMNSLKPEDTAVYYCAVDGFRPGTASFGYWGQGTQVTVSS	low polyreactivity
QVQLVESGGGLVQAGGSLRLRCAASGLTFTYYAMGWYRQAPGKERELVAAISSGGNTNYADSVKGRFTISRDNAKNTVYLQMNSLKPEDTGVYYCAADDYYDHRVIYRSWYDYWGQGTQVTVSS	low polyreactivity
QVQLVESGGGLVQAGGSLRLSCAASGFTIDSNVMGWYRQAPGKDRELVAAITGDDTTYYADSVKGRFTISRDNAKNTVYLQMNSLKPEDTAVYYCAADETESLEYTAYDMYYWGQGTQVTVSS	low polyreactivity
PVQLVESGGGLGQAGGSLRLSCAASGIIFNDYAMGWYRQAPGKERELVASIRSNTGSTNYADSVKGRFTISRDYAKNTVYLPMNSLKPEETAVSDCAADYLPDYGPRGGYWGQGTQVTVSS	low polyreactivity
QVQLVDTGGGLVQAGGSLRLSCAASGFTFRWYAMGWYRQAPGKERELVAAISWRGGSTYYADSVKGRFTISRDNAKTTVYLQMNSLKPEDTAVYYCAALRYWISLSSYEYWGQGTQVTVSS	high polyreactivity
QVQLVESCGGLVQAGGSLRLSCAASAWYAIGWYRQAPGKEREFVAAITFSGSSTYYADSVKGRFTISRDNAKNTVYLQMNSLKPEDTAVYYCNADWWEWGQGTQVTVSS	low polyreactivity
QVQLVESGGGLVQAGGSLRLSCAASGITFPGYAMGWYRQAPGKERELVAAISDSGSSTYYADSVKGRFTISRDNAKNTVYLQMNSLKPEDTAVYYCAAVSGFYDQYDYWGQGTQVTVSS	low polyreactivity
QVQLVESGGGLVQAGGSLRLSCAASGRIFYRYVMGWYRQAPGKERELVAAITSSGGSTYYADSVKGRFTISRDNAKNTVYLQMNSLNPEDTAVYYCAADRYTRYRYNYWGQGTQVTVSS	high polyreactivity
QVQLVESGGGLVQAGGSLRLSCAASGSTSSVYAMGWYRQAPGKERELVAAISYRGARTYYADSVKGRFTISRDNAKNTVYFQMNSLKPEDTAVYYCAAENYPRRPRYDYWGQATQVTVSS	high polyreactivity
QVQLVESGGGLVQAGGSLRLSCAASGFTLVLNAMGWYRQAPGKERELVAAIRRSAGSTYYADSVKGRFTISRDNAKNTVYLQMNSLKPEDTAVYYCAAGFLWAKYAYGHWGQGTQVTVSS	low polyreactivity
QVQLVESGGGIVQAGGSLRLSCAASGGTFYYYAMGWYRQAPGKERELVATISYSGASTYYADSVKGRFTISRDNAKNTVYLQMNSLKPEDTAVYYCKARPYNHRYRAWMDYWGQGTQVTVSS	high polyreactivity
QVQLVESGGGLVQAGGSLRLSCAASASIFDIYGMGWYRKAPGKERELVASISGGAGSTNYADSVKGRFTISRDNAKNTVYLQMNSLKPEDTAVYYCAADSADPTEYDYWGQGTQVTVSS	low polyreactivity
QVQLVESRVGLVKAGGSLRLSCAASGITLYWYAMGWYRQAPGKESELVAAISRRGGTTYYSDSVKGRFTISRDNAKNTVYLQMNILKPEDTAVYYCAKAPDTQTSWSRQEGNYWGQGSQVTVSS	low polyreactivity
QVQLVESGGGLVQAGGSLRLSCAASGSTFYLYTMGWYRQAPGKERELVAAISRSGGSTRYADSVKGRFTISRDNAKNTVYLQMNSLKPEDTAVYYCAARSTVYPRPHERDYWGQGTQVTVSS	high polyreactivity
QVQLVESGVGLVQAGGSLRLSCAASGSTFGGYAMGWYRQAPGKDTEFVAAISYDGDSTYYADSVKGRFTISRDNAKNTVYLQMNSLKPEDTAVYYCAADISYHYGVWYFYYWGQGTQVTVSS	low polyreactivity
QVQLVESGGGLVQAGGSLRLSCAASGSTFLVYDRGWYRQAPGKERELVAAITWSGGSTYYADSVKGRFTISRDNAKNTVYLQINSLTPEYTAVYYCAAEIHRTYSWEYPYEMYWGQGTQVTVSS	high polyreactivity
QVQLVESGGGLVQAGGSLRLSCAASGLTFTGYAMGWYRQAPGKERELVASISRSGASTFYADSVKGRFTISRDNAKNTVYLQMNSLKPEDTAVYYCAAVPGWLTSRYYYWGQGTHVTVSS	high polyreactivity
QVQLVESGGGLVQAGGSLRLSCAACGFIFSSNAMGWYTPAPGNERELVAAITGGGGRTRYADSVKGRFTISRDNAKNSVYLQMNSLKPEDTAVYYCNTVYYVYYRSYSYKGDYWGQGTQVTVSS	high polyreactivity
QVQLVESGGGLVQAGGSLRLSFAASGRIFDVYAMGRYRQAPGKERELVAAITWSGGRTYYADSVKGRFTLSRDNAKNTVYLQMNSLKPEDTAVYYCAAEKPYVRGYLGTYDYWGQGTQVTVSS	low polyreactivity
QVQLVESGGGLVQAGGSLRLSCAATGIIFYRNAMGWYRQAPGKERELVASISKRGGSTYYADSVKGRFTISRDNAKNTVYLQMNSLKPEDNAVYYCNTRGGIARQFEIYSWGQGTQVTLSS	high polyreactivity
QVQLVESGGGLVQAGGSLRLSCAASGSTFKWYGRGWSRQAPGKDRELVATINYSSSTTYYADSVKGRFTISRDNAKNTVYLQMNSLKPEDTAVYYCAKGVYWGTKSTYDYWGQGTQVTVSS	high polyreactivity
QVQLEESAGGLVQAGGSLRLSCAASGLTFNYYAMGWYRQAPGKERELVAAITGRGGSTYYADSVKGRFTISRDNAKNTVYLQMNSLKPEDTAVYYCAADGGTRGYDYWGQGTQVTVSS	low polyreactivity

Sequence	polyreactivity (PSR sort gate)
QVQLVESGGGLVQAGGSLRLRCAASGITLLNYAMGWYRQAPWKERELVAAISWSGGRTYYADSVKGRFTMSRDNAKNTDYLHMNSLNPQDTAVYYCAAARGVNSYGYWGQGTQVTVSS	high polyreactivity
QVQLVESGGGLVQAGGSLRLSCAASGIIFYYYAMGWYRQAPGKERELVAAISTSGGRTYYADSVKGRFTISRDNAKNTVYLQMNSLKPEDTAVYYCAKDFWYVTGGWSSGMDYWGQGTQVTVSS	low polyreactivity
QVQLVESGGGLVQAGGSLRLSCAASGNTIFHYAMGWYRQAPGKERELVAAISSADSTYYADSVKGRFTISRDNAKNTVYLQMNSLKPEDTAVYYCAKDRPNRPDLYDYWGQGTQVTLSS	low polyreactivity
QVQLQESGGVLMQAGGNLRLSFPASGYISTHYDMDWYRQAPGKERELVARIDDGAITNYADSVKGRFTISRDNAKNTVYLQMNSLKPEDTAVYYCAVYYGDDYYHDYWGQGTQVTVSS	low polyreactivity
QVQLVESGGGLVQAGGSLRLSCAASGNILEYNAMGWYRQAPGKEREMVAAISRGGITNYADSVKGRFTISRDNAKNTVYLQMNCLKPEDTAVYYCATRWIGYTSQWDHFEYDYWGQGTQVTVSS	low polyreactivity
QVQLVESGGGLVQAGGSLRLSCDASGRIFGYYTMGWYRQAPGKERELVAAISNSGVSTYYADSVKGRFTISRDNAKNTVYLQMNSLKPEDTAVYYCNARLYSYYKFNYWGQGTQVTVSS	high polyreactivity
QVQLVESGGGLVQAGGSLRLSCAASGSTSIYYTMGWYRQAPGKERELVAYADSVKGRFTISRDNAKNTVYLQMNSMKPEDTEVYFCAAPRTYYSELTSPYDYWGQGTQVTVSS	low polyreactivity
QVQLVESGGGLVQAGGSLRLSCAASGSTIFYNAMGWYSKAPGKERELVAAITDSGGSTYYADSVKGRFTISRDNAKNTVYLQMNSLKPEDTAVYYCAKRNFDNPIFDYWGQGTQVTVSS	low polyreactivity
QVQLVESGGGLVQAGGSLRLSCAASGTTFGYNAMGWYRQAPGKERELVAAITSGGSTNYADSVKGRFTISRDNAKNTVYLQMNSLKPEDTAVYYCDKRGYYHYYWGQGTQVTVSS	high polyreactivity
QVQLVESGGGLVQAGGSLRLSCAASGSIFSGYTMGWYRQAPGKERELVAGISYRGGSTYYADSVKGRFTISRDNAKNTVYLQMNSLKPEDTAVYYCAARHSTLRGYWGQGTQVTVSS	high polyreactivity
QVQLVESGGGLVQAGGSLRLSCAASGRIFGTNARGWYRQAPGKERELVADITSGGSTNYADSVKGRFTISRDNAKNTVYLQMNSLKPEDTAVYYCAADVIGDLRWYRDEYWGQGTQVTVSS	low polyreactivity
QVQLEESGGGLVQAGGSLRLSCAASGFIFPYYAMGWYRQAHGQERELVAAISRSGGRTYYADSVKGRFTISRDNAKNTVYLQMNSLKPEDTAVYYCNAPFQSEPFDYWGQGTQVTVSS	high polyreactivity
QVQLVESGGGLVQAGGSLRLSCAASGRTSGRYAMGWYRQAPGKERELVAGITSSGGSTYYADSVKGRFTISRDNAKNSVYLQMNSLKPEDTAVYYCAKVWGAKGKTYRMYSWGQGTQVTVSS	high polyreactivity
QVQLVESGGGLVQAGGSLRLSCAASGSIIYHYAMGWYRQAPGKERELVAAITSSGGSTYYADSVKGRFTISRDNAKNTVYLQMNSLKPEDTEVYYCAVESRGRAGGNYWGQGTQVTVSS	low polyreactivity
QVQLVESGGGLVQAGGSLRLICAASGIIFGGYDMGWYRQAPGKERELVAGIRSGGSTYYADSVKGRFTISRDNAKNTVYLQMNSLKPEDTAVYYCAKYVPIPYYSYLFGSYDYWGQGTQVTVSS	low polyreactivity
QVQLVESGGGLVQAGGSLRLSCAASGSTFGVYARGWYRQAPGKERELVAAISSSTGSTYYADSVKGRFTISRDNEKNTVYLQMNSLKPEDTAVYYCAAAGYGKVRGDYWGQGTQVTVSS	low polyreactivity
QVQLVQSGGGLVQAGGRLRLSSAASGRTFEPNAMGWYRQAPGKERELVAAITNGGSTSYADSVKGRFTISRDNAKNSVYLQMNSLKPEDTAVYDFAGDLGRNLLHTYYYWGQGTQVTVSS	low polyreactivity
QVQLVESGGGLVQAGGSLRLSCAASGGIFYGYALGWYRQAPGKERELVASITSDGSTYADSVKGRFTISRDNAKNTVYLQMNSLKPEDTAVYYCNKEILVIVTYDYWGQGTQVTVSS	low polyreactivity
QVQLVESGGGLVQEGGILRLICAASGIIFPIYAMGWYRQAPGKERELVAAISQSGASTYYADSVKGRFTISRDNAKNTVYLALNSLKPEDTAVYYCAALNGDGPWQLSSEEFVYWGQGTQVTVSS	low polyreactivity
QVQLEESGGGLVQAGGSLRLSCAASGITIRIYAKGCYRQAPGKERELVAGISSSGSTNYADSVKGRFTISRDNAKNTVYLQMNSLKPEDTAVYYCAADAFYIFDYWGQGTQVTVSS	high polyreactivity
QVQLVESGGGLVQAGGSLRLSCAASGFIFSGYNMGWYRQAPGKERELVAAITKRGGRTYYADSVKWRFTISRDNAKNTVYLQMNSLKPEDTAVYYCNVDVKVYSDETTDGDYWGQGTQVTVSS	high polyreactivity
